Measured values taken from patent US20210388110A1.
“And” between values parts separate entries of the source, which are not always exact repeats. Identical values can stand only once.

B1: TR01H110-E2702GsKsc/L0011-k0 (antibody, human IgG4 S228P, kappa, N297A)
heavy: QVQLVESGGGVVQPGRSLKLSCAASGFTFSNAWMHWVRQAPGKGLEWVAQIKDKSQNYATYYAESVKGRFTISRDDSKNSLYLQMNSLKTEDTAVYYCRYVHYAAGYGVDAWGQGTTVTVSSASTKGPSVFPLAPCSRSTSESTAALGCLVKDYFPEPVTVSWNSGALTSGVHTFPAVLQSSGLYSLSSVVTVPSSSLGTKTYTCNVDHKPSNTKVDKRVESKYGPPCPPCPAPEFRGGPKVFLFPPKPKDTLMISRTPEVTCVVVDVSQEDPEVQFNWYVDGVEVHNAKTKPREEQFASTYRVVSVLTVLHQDWLNGKEYKCKVSNKGLPSSIEKTISKAKGQPREPQVYTLPPSQKEMTKNQVSLTCLVKGFYPSDIAVEWESNGQPENNYKTTPPVLDSDGSFFLYSKLTVDKSRWQEGNVFSCSVMHEALHNRYTQKSLSLSP
light: DIVMTQSPLSLPVTPGEPASISCRSSQPLVHSNRNTYLHWYQQKPGQAPRLLIYKVSNRFSGVPDRFSGSGSGTDFTLKISRVEAEDVGVYYCGQGTQVPYTFGQGTKLEIKRTVAAPSVFIFPPSDEQLKSGTASVVCLLNNFYPREAKVQWKVDNALQSGNSQESVTEQDSKDSTYSLSSTLTLSKADYEKHKVYACEVTHQGLSSPVTKSFNRGEC
B2: TR01H091-E2702GsKsc/L0011-k0 (antibody, human IgG4 S228P, kappa, N297A)
heavy: QVQLVESGGGLVQPGRSLKLSCAASGFTFSNAWMHWVRQAPGKGLEWVAQIKDKSQNYATYYAESVKGRFTISRDDSKNSLYLQMNSLKTEDTAVYYCRYVHYAAGYGVDAWGQGTTVTVSSASTKGPSVFPLAPCSRSTSESTAALGCLVKDYFPEPVTVSWNSGALTSGVHTFPAVLQSSGLYSLSSVVTVPSSSLGTKTYTCNVDHKPSNTKVDKRVESKYGPPCPPCPAPEFRGGPKVFLFPPKPKDTLMISRTPEVTCVVVDVSQEDPEVQFNWYVDGVEVHNAKTKPREEQFASTYRVVSVLTVLHQDWLNGKEYKCKVSNKGLPSSIEKTISKAKGQPREPQVYTLPPSQKEMTKNQVSLTCLVKGFYPSDIAVEWESNGQPENNYKTTPPVLDSDGSFFLYSKLTVDKSRWQEGNVFSCSVMHEALHNRYTQKSLSLSP
light: DIVMTQSPLSLPVTPGEPASISCRSSQPLVHSNRNTYLHWYQQKPGQAPRLLIYKVSNRFSGVPDRFSGSGSGTDFTLKISRVEAEDVGVYYCGQGTQVPYTFGQGTKLEIKRTVAAPSVFIFPPSDEQLKSGTASVVCLLNNFYPREAKVQWKVDNALQSGNSQESVTEQDSKDSTYSLSSTLTLSKADYEKHKVYACEVTHQGLSSPVTKSFNRGEC
B3: TR01H112-E2702GsKsc/L0011-k0 (antibody, human IgG4 S228P, kappa, N297A, V domains shown)
VH: QVQLVESGGGVVQPGGSLRLSCAASGFTFSNAWMHWVRQAPGKGLEWVAQIKDKSQNYAQYYAESVKGRFTISRADSKNSIYLQMNSLKTEDTAVYYCRYVHYAAGYGVDIWGQGTTVTVSS
VL: DIVMTQSPLSLPVTPGEPASISCRSSQPLVHSNRNTYLHWYQQKPGQAPRLLIYKVSNRFSGVPDRFSGSGSGTDFTLKISRVEAEDVGVYYCGQGTQVPYTFGQGTKLEIKR
B4: TR01H113-E2702GsKsc/L0011-k0 (antibody, human IgG4 S228P, kappa, N297A, V domains shown)
VH: QVQLVESGGGVVQPGGSLRLSCAASGFTFSNAWMHWVRQAPGKGLEWVAQIKDKSQNYATYVAESVKGRFTISRADSKNSIYLQMNSLKTEDTAVYYCRYVHYAAGYGVDIWGQGTTVTVSS
VL: DIVMTQSPLSLPVTPGEPASISCRSSQPLVHSNRNTYLHWYQQKPGQAPRLLIYKVSNRFSGVPDRFSGSGSGTDFTLKISRVEAEDVGVYYCGQGTQVPYTFGQGTKLEIKR
B5: TR01H096-E2702GsKsc/L0011-k0 (antibody, human IgG4 S228P, kappa, N297A, V domains shown)
VH: QVQLVESGGGLVQPGRSLRLSCAASGFTFSNAWMHWVRQAPGKGLEWVAQIKDKSQNYAGYYAESVKGRFTISRDDSKNSLYLQMNSLKTEDTAVYYCRYVHYAAGYGVDAWGQGTTVTVSS
VL: DIVMTQSPLSLPVTPGEPASISCRSSQPLVHSNRNTYLHWYQQKPGQAPRLLIYKVSNRFSGVPDRFSGSGSGTDFTLKISRVEAEDVGVYYCGQGTQVPYTFGQGTKLEIKR
B6: TR01H109-E2702GsKsc/L0011-k0 (antibody, human IgG4 S228P, kappa, N297A, V domains shown)
VH: QVQLVESGGGLVQPGRSLRLSCAASGFTFSNAWMHWVRQAPGKGLEWVAQIKDKSQNYATYVAESVKGRFTISRDDSKNSLYLQMNSLKTEDTAVYYCRYVHYAAGYGVDAWGQGTTVTVSS
VL: DIVMTQSPLSLPVTPGEPASISCRSSQPLVHSNRNTYLHWYQQKPGQAPRLLIYKVSNRFSGVPDRFSGSGSGTDFTLKISRVEAEDVGVYYCGQGTQVPYTFGQGTKLEIKR
B7: TR01H098-E2702GsKsc/L0011-k0 (antibody, human IgG4 S228P, kappa, N297A, V domains shown)
VH: QVQLVESGGGLVQPGRSLRLSCAASGFTFSNAWMHWVRQAPGKGLEWVAQIKDKSQNYAPYYAESVKGRFTISRDDSKNSLYLQMNSLKTEDTAVYYCRYVHYAAGYGVDAWGQGTTVTVSS
VL: DIVMTQSPLSLPVTPGEPASISCRSSQPLVHSNRNTYLHWYQQKPGQAPRLLIYKVSNRFSGVPDRFSGSGSGTDFTLKISRVEAEDVGVYYCGQGTQVPYTFGQGTKLEIKR
B8: TR01H107-E2702GsKsc/L0011-k0 (antibody, human IgG4 S228P, kappa, N297A, V domains shown)
VH: QVQLVESGGGLVQPGRSLRLSCAASGFTFSNAWMHWVRQAPGKGLEWVAQIKDKSQNYATYQAESVKGRFTISRDDSKNSLYLQMNSLKTEDTAVYYCRYVHYAAGYGVDAWGQGTTVTVSS
VL: DIVMTQSPLSLPVTPGEPASISCRSSQPLVHSNRNTYLHWYQQKPGQAPRLLIYKVSNRFSGVPDRFSGSGSGTDFTLKISRVEAEDVGVYYCGQGTQVPYTFGQGTKLEIKR
B9: TR01H103-E2702GsKsc/L0011-k0 (antibody, human IgG4 S228P, kappa, N297A, V domains shown)
VH: QVQLVESGGGLVQPGRSLRLSCAASGFTFSNAWMHWVRQAPGKGLEWVAQIKDKSQNYATYGAESVKGRFTISRDDSKNSLYLQMNSLKTEDTAVYYCRYVHYAAGYGVDAWGQGTTVTVSS
VL: DIVMTQSPLSLPVTPGEPASISCRSSQPLVHSNRNTYLHWYQQKPGQAPRLLIYKVSNRFSGVPDRFSGSGSGTDFTLKISRVEAEDVGVYYCGQGTQVPYTFGQGTKLEIKR
B10: TR01H104-E2702GsKsc/L0011-k0 (antibody, human IgG4 S228P, kappa, N297A, V domains shown)
VH: QVQLVESGGGLVQPGRSLRLSCAASGFTFSNAWMHWVRQAPGKGLEWVAQIKDKSQNYATYIAESVKGRFTISRDDSKNSLYLQMNSLKTEDTAVYYCRYVHYAAGYGVDAWGQGTTVTVSS
VL: DIVMTQSPLSLPVTPGEPASISCRSSQPLVHSNRNTYLHWYQQKPGQAPRLLIYKVSNRFSGVPDRFSGSGSGTDFTLKISRVEAEDVGVYYCGQGTQVPYTFGQGTKLEIKR
B11: TR01H105-E2702GsKsc/L0011-k0 (antibody, human IgG4 S228P, kappa, N297A, V domains shown)
VH: QVQLVESGGGLVQPGRSLRLSCAASGFTFSNAWMHWVRQAPGKGLEWVAQIKDKSQNYATYLAESVKGRFTISRDDSKNSLYLQMNSLKTEDTAVYYCRYVHYAAGYGVDAWGQGTTVTVSS
VL: DIVMTQSPLSLPVTPGEPASISCRSSQPLVHSNRNTYLHWYQQKPGQAPRLLIYKVSNRFSGVPDRFSGSGSGTDFTLKISRVEAEDVGVYYCGQGTQVPYTFGQGTKLEIKR
B12: TR01H099-E2702GsKsc/L0011-k0 (antibody, human IgG4 S228P, kappa, N297A, V domains shown)
VH: QVQLVESGGGLVQPGRSLRLSCAASGFTFSNAWMHWVRQAPGKGLEWVAQIKDKSQNYAQYYAESVKGRFTISRDDSKNSLYLQMNSLKTEDTAVYYCRYVHYAAGYGVDAWGQGTTVTVSS
VL: DIVMTQSPLSLPVTPGEPASISCRSSQPLVHSNRNTYLHWYQQKPGQAPRLLIYKVSNRFSGVPDRFSGSGSGTDFTLKISRVEAEDVGVYYCGQGTQVPYTFGQGTKLEIKR

The binders below were run against Mab Select SuRe Ligand (assay: SPR (Biacore T200), SuRe ligand on CM5 chip, antibody 5 ug/mL).
For B1, the SuRe binding (RU) was 29.5 RU. For B2, the SuRe binding (RU) was 27.5 RU and 15 RU. B3 was tested, and the SuRe binding (RU) was 8.8 RU. B4 gave a SuRe binding (RU) of 7 RU. For B5, the SuRe binding (RU) was 2.7 RU. In the case of B6, the SuRe binding (RU) is reported as 2.2 RU. With B7 the SuRe binding (RU) was 1.6 RU. With B8 the SuRe binding (RU) was 1.4 RU. B9 was tested, and the SuRe binding (RU) was 1.4 RU. B10 showed a SuRe binding (RU) of 1 RU. In the case of B11, the SuRe binding (RU) is reported as 0.8 RU. In the case of B12, the SuRe binding (RU) is reported as 0.6 RU.
